# Data: article doi:10.1101/2021.08.16.456586
# Where two headings read alike, the source gives them in different places.
# Tests used:
# [1] = target: Empty HBV Cp183 capsid (Hepatitis B Virus (strain not stated)) (UniProt P03147); test: charge detection mass spectrometry
# [2] = target: Empty HBV Cp183 capsid (Hepatitis B Virus (strain not stated)) (UniProt P03147); test: charge detection mass spectrometry; remark: listed apart in the source
# [3] = target: Empty HBV Cp183 capsid (Hepatitis B Virus (strain not stated)) (UniProt P03147); test: charge detection mass spectrometry; remark: listed apart in the source
# [4] = target: Empty HBV Cp183 capsid (Hepatitis B Virus (strain not stated)) (UniProt P03147); test: negative stain TEM, 2D class averages
# Chain of UniProt P03147 (P03147 whole entry): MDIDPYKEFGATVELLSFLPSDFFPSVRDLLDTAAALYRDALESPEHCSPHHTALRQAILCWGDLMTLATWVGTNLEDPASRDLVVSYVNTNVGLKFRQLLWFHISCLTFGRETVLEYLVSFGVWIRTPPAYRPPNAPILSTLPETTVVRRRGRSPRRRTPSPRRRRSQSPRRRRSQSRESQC
substance,measurement,setting,value
Importin β (from UniProt Q14974 1-876) (natural protein),stoichiometry N (Impβ per capsid),[1],64
same,stoichiometry N (Impβ per capsid),[2],38
same,stoichiometry N (Impβ per capsid),[3],38
same,percent of empty capsids with externally bound Impβ,[4],90%
same,"percent of particles with visible, externally bound Impβ",[4],48%
